Publication PMC5039624 (Scientific Reports, 2016)
Bridge positions count the residues as written; N and C are the ends. Peptide text beside a SMILES is read from it.

Columns and labels:
[1] = Liposome centrifugation assay, POPE liposomes; type: physicochemical; conditions: 10 μM toxin, 1 h room temperature, 30 min at 100,000 g, supernatant by RP-HPLC, close to 0
Protocol: (§1) To investigate whether the micelle-binding interface identified by NMR-CSM faithfully reports on the lipid-binding interface of the peptide we used a previously reported liposome centrifugation assay[30] to study the interaction between VSTx1 and phospholipids with different head groups. VSTx1 was incubated with liposomes of different composition, then the liposomes were pelleted using ultracentrifugation and the amount of unbound VSTx1 in the supernatant was determined using reverse-phase (RP) HPLC (Fig. 4a,b). Partition coefficients (Kp) for binding of VSTx1 to liposomes were calculated by fitting to the partition equilibrium equation (see Eqn (3) in Materials and Methods). […]
(§2) Large unilamellar vesicles (LUVs) were prepared by drying lipids (POPG and/or POPC, 25 mg/mL) under nitrogen gas, drying the lipid pellet under vacuum, and resuspending the lipids by vortexing for 1 h in an aqueous buffer containing 10 mM HEPES pH 7.4, and 150 mM NaCl. […] Aqueous solutions of the toxin (10 μM) were incubated with varying amounts of vesicles for 1 h at room temperature, then the vesicles were centrifuged for 30 min at 100,000 g before the toxin concentration in the aqueous phase was determined. Aqueous concentrations of VSTx1 were quantified by RP-HPLC using a monolithic C18 column (4.6 × 100 mm). […]

[2] = Liposome centrifugation assay, POPC liposomes; type: physicochemical; conditions: LUVs, 10 mM HEPES pH 7.4, 150 mM NaCl; 10 μM toxin, 1 h room temperature, 30 min at 100,000 g; supernatant by RP-HPLC; close to 0
Protocol: as §1, §2

[3] = Liposome centrifugation assay, liposomes with POPG content reduced by 25%; type: physicochemical; conditions: 10 mM HEPES pH 7.4, 150 mM NaCl, 10 μM toxin, 1 h room temperature, 30 min at 100,000 g, supernatant by RP-HPLC
Protocol: as §1, §2

[4] = Liposome centrifugation assay, POPG liposomes; type: physicochemical; conditions: LUVs extruded through 0.1 μm filters, 10 mM HEPES pH 7.4, 150 mM NaCl; 10 μM toxin, 1 h room temperature, 30 min at 100,000 g; unbound toxin in supernatant by RP-HPLC; fit to partition equilibrium equation
Protocol: To investigate whether the micelle-binding interface identified by NMR-CSM faithfully reports on the lipid-binding interface of the peptide we used a previously reported liposome centrifugation assay[30] to study the interaction between VSTx1 and phospholipids with different head groups. VSTx1 was incubated with liposomes of different composition, then the liposomes were pelleted using ultracentrifugation and the amount of unbound VSTx1 in the supernatant was determined using reverse-phase (RP) HPLC (Fig. 4a,b). Partition coefficients (Kp) for binding of VSTx1 to liposomes were calculated by fitting to the partition equilibrium equation (see Eqn (3) in Materials and Methods). The Kp for binding to 1-palmitoyl-2-oleoyl-sn-glycero-3-phosphoglycerol (POPG) liposomes was 2.4 × 10^5 while the Kp values for binding to POPC or 1-palmitoyl-2-oleoyl-sn-glycero-3-phosphoethanolamine (POPE) liposomes were close to 0 (both <10^2) (Fig. 4e).
Large unilamellar vesicles (LUVs) were prepared by drying lipids (POPG and/or POPC, 25 mg/mL) under nitrogen gas, drying the lipid pellet under vacuum, and resuspending the lipids by vortexing for 1 h in an aqueous buffer containing 10 mM HEPES pH 7.4, and 150 mM NaCl. Vesicles were extruded 20 times using 0.1 μm polycarbonate filters (Avanti Polar Lipids, Inc.). Aqueous solutions of the toxin (10 μM) were incubated with varying amounts of vesicles for 1 h at room temperature, then the vesicles were centrifuged for 30 min at 100,000 g before the toxin concentration in the aqueous phase was determined. Aqueous concentrations of VSTx1 were quantified by RP-HPLC using a monolithic C18 column (4.6 × 100 mm). The toxin was eluted with a linear gradient of 10–50% solvent B (0.046% TFA in acetonitrile) in solvent A (0.05% TFA in water) over 10 min at a flow rate of 3 ml/min. The partition coefficients (Kp) for the binding of VSTx1 to liposomes were calculated by fitting to the partition equilibrium equation: […]

[5] = molecular target: isolated voltage-sensor domain of the voltage-gated potassium channel KvAP (VSDK), wild type (UniProt Q9YDF8); experiment: pull-down
VSDK E45A = molecular target: T1, VSDK E45A (UniProt Q9YDF8 19-160, E45A); experiment: pull-down; conditions: both partners purified
T1 sequence: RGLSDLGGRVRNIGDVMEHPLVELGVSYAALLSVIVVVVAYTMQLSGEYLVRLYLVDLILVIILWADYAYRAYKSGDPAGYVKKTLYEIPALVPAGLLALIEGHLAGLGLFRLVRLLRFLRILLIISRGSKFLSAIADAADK

VSDK T47A = molecular target: T2, VSDK T47A (UniProt Q9YDF8 19-160, T47A); experiment: pull-down; conditions: both partners purified
T2 sequence: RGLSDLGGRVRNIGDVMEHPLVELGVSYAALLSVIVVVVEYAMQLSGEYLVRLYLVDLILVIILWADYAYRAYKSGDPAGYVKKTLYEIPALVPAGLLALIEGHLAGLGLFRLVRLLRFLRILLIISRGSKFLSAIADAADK

VSDK Y46A = molecular target: T3, VSDK Y46A (UniProt Q9YDF8 19-160, Y46A); experiment: pull-down; conditions: both partners purified
T3 sequence: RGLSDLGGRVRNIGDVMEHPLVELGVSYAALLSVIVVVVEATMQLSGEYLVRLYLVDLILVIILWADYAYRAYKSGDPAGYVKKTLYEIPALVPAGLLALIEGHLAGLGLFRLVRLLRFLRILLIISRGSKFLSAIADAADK

VSDK E107A = molecular target: T4, VSDK E107A (UniProt Q9YDF8 19-160, E107A); experiment: pull-down; conditions: both partners purified
T4 sequence: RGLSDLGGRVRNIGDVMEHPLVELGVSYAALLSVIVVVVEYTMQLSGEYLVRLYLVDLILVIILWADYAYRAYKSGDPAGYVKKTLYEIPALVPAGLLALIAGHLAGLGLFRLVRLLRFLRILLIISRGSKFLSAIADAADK

VSDK S51A = molecular target: T5, VSDK S51A (UniProt Q9YDF8 19-160, S51A); experiment: pull-down; conditions: both partners purified
T5 sequence: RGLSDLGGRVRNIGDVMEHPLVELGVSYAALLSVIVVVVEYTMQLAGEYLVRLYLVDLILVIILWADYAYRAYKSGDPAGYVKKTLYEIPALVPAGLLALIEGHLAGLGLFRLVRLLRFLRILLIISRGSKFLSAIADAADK

VSDK Q49A = molecular target: T6, VSDK Q49A (UniProt Q9YDF8 19-160, Q49A); experiment: pull-down; conditions: both partners purified
T6 sequence: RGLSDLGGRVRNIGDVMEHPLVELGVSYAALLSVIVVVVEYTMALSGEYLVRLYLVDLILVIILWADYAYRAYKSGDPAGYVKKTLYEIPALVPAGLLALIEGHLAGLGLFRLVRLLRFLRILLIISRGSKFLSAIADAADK

VSDK R120A = molecular target: T7, VSDK R120A (UniProt Q9YDF8 19-160, R120A); experiment: pull-down; conditions: both partners purified
T7 sequence: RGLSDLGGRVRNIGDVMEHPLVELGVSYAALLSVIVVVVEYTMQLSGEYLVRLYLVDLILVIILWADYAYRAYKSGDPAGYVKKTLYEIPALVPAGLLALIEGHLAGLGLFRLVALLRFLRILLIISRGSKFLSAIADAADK

[6] = molecular target: T8, isolated voltage-sensor domain of the voltage-gated potassium channel KvAP (VSDK), wild type (UniProt Q9YDF8 19-160); experiment: NMR titration; conditions: both partners purified
T8 construct: also called WT VSDK; KvAP voltage sensor
T8 sequence: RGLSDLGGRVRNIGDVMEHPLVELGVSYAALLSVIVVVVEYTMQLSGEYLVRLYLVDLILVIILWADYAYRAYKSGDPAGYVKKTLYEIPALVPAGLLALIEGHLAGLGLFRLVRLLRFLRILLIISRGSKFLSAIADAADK

With `CSCC[C@@H]1NC(=O)[C@H](Cc2ccccc2)NC(=O)[C@H](CCCCN)NC(=O)CNC(=O)[C@@H](NC(=O)[C@H](CCC(=O)O)NC(=O)[C@@H](N)CO)CSSC[C@@H]2NC(=O)[C@@H]3CSSC[C@@H](C(=O)N[C@H](C(=O)N[C@@H](CC(C)C)C(=O)N[C@@H](C)C(=O)N[C@@H](CO)C(=O)N4CCC[C@H]4C(=O)N[C@@H](Cc4ccccc4)C(=O)O)C(C)C)NC(=O)[C@H](Cc4c[nH]c5ccccc45)NC(=O)[C@H](CCCCN)NC(=O)[C@H](Cc4c[nH]c5ccccc45)NC(=O)[C@H](CCCNC(=N)N)NC(=O)[C@H](CO)NC(=O)[C@H](CO)NC(=O)[C@H](CSSC[C@H](NC(=O)[C@H](CCCCN)NC(=O)[C@H](Cc4c[nH]c5ccccc45)NC1=O)C(=O)N[C@@H](CCCCN)C(=O)N[C@@H](CC(N)=O)C(=O)N[C@@H](CO)C(=O)N[C@@H](CC(N)=O)C(=O)N[C@@H](CC(=O)O)C(=O)N3)NC(=O)[C@H](C(C)C)NC(=O)[C@H](CC(C)C)NC(=O)[C@H](CC(=O)O)NC(=O)[C@H](CCCCN)NC2=O` [VSTx1] (H-SECGKFMWKCKNSNDCCKDLVCSSRWKWCVLASPF-OH; disulfide 3-17, 10-22, 16-29) the “Partition coefficient (Kp) for binding to POPE liposomes” value [1] was < 10^2, the “Partition coefficient (Kp) for binding to POPC liposomes” value [2] was < 10^2 and the “Partition coefficient (Kp), POPG content of liposomes reduced by 25%” value [3] was 0.18 × 10^5. The “Partition coefficient (Kp) for binding to POPG liposomes” value [4] was 2.4 × 10^5.

VSTx1 W7A (peptide) gave a percent decrease in binding against wild-type VSTx1 [5] of 58%.

For `CSCC[C@@H]1NC(=O)[C@H](Cc2ccccc2)NC(=O)[C@H](CCCCN)NC(=O)CNC(=O)[C@@H](NC(=O)[C@H](CCC(=O)O)NC(=O)[C@@H](N)CO)CSSC[C@@H]2NC(=O)[C@@H]3CSSC[C@@H](C(=O)N[C@H](C(=O)N[C@@H](CC(C)C)C(=O)N[C@@H](C)C(=O)N[C@@H](CO)C(=O)N4CCC[C@H]4C(=O)N[C@@H](Cc4ccccc4)C(=O)O)C(C)C)NC(=O)[C@H](Cc4c[nH]c5ccccc45)NC(=O)[C@H](CCCCN)NC(=O)[C@H](Cc4c[nH]c5ccccc45)NC(=O)[C@H](C)NC(=O)[C@H](CO)NC(=O)[C@H](CO)NC(=O)[C@H](CSSC[C@H](NC(=O)[C@H](CCCCN)NC(=O)[C@H](Cc4c[nH]c5ccccc45)NC1=O)C(=O)N[C@@H](CCCCN)C(=O)N[C@@H](CC(N)=O)C(=O)N[C@@H](CO)C(=O)N[C@@H](CC(N)=O)C(=O)N[C@@H](CC(=O)O)C(=O)N3)NC(=O)[C@H](C(C)C)NC(=O)[C@H](CC(C)C)NC(=O)[C@H](CC(=O)O)NC(=O)[C@H](CCCCN)NC2=O` [R24A] (H-SECGKFMWKCKNSNDCCKDLVCSSAWKWCVLASPF-OH; disulfide 3-17, 10-22, 16-29), the “Partition coefficient (Kp) for binding to POPG liposomes” value [4] was 0.11 × 10^5.

In the case of `CSCC[C@@H]1NC(=O)[C@H](Cc2ccccc2)NC(=O)[C@H](CCCCN)NC(=O)CNC(=O)[C@@H](NC(=O)[C@H](CCC(=O)O)NC(=O)[C@@H](N)CO)CSSC[C@@H]2NC(=O)[C@@H]3CSSC[C@@H](C(=O)N[C@H](C(=O)N[C@@H](CC(C)C)C(=O)N[C@@H](C)C(=O)N[C@@H](CO)C(=O)N4CCC[C@H]4C(=O)N[C@@H](Cc4ccccc4)C(=O)O)C(C)C)NC(=O)[C@H](Cc4c[nH]c5ccccc45)NC(=O)[C@H](CCCCN)NC(=O)[C@H](Cc4c[nH]c5ccccc45)NC(=O)[C@H](CCCNC(=N)N)NC(=O)[C@H](CO)NC(=O)[C@H](CO)NC(=O)[C@H](CSSC[C@H](NC(=O)[C@H](CCCCN)NC(=O)[C@H](Cc4c[nH]c5ccccc45)NC1=O)C(=O)N[C@@H](CCCCN)C(=O)N[C@@H](CC(N)=O)C(=O)N[C@@H](CO)C(=O)N[C@@H](C)C(=O)N[C@@H](CC(=O)O)C(=O)N3)NC(=O)[C@H](C(C)C)NC(=O)[C@H](CC(C)C)NC(=O)[C@H](CC(=O)O)NC(=O)[C@H](CCCCN)NC2=O` [N13A] (H-SECGKFMWKCKNSADCCKDLVCSSRWKWCVLASPF-OH; disulfide 3-17, 10-22, 16-29), the “Partition coefficient (Kp) for binding to POPG liposomes” value [4] is reported as 2.7 × 10^5.

Work on VSTx1 K8A (peptide) yielded a percent decrease in binding against wild-type VSTx1 [5] of 20%.

B1: VSTx1 (recombinant, wild type) (peptide)
chain: SECGKFMWKCKNSNDCCKDLVCSSRWKWCVLASPF
notes: also called WT VSTx1; spider-venom peptide VSTx1; not shown: His6, N-terminal, cleaved; MBP, N-terminal, cleaved
For B1, the “percent decrease in binding against wild-type VSDK” value (VSDK E45A) was 65%, the binding result (VSDK T47A) was “binds” and the binding result (VSDK Y46A) was “binds”. For the same molecule, the “percent decrease in binding against wild-type VSDK” value (VSDK E107A) was 59%, the binding result (VSDK S51A) was “binds” and the “percent decrease in binding against wild-type VSDK” value (VSDK Q49A) was 58%. The binding result (VSDK R120A) was “binds” and the Kd [6] was 140 µM.
